Assay results from the supplement of paper PMC10567573.

B1: FAM50A (parent)
chain: HIFPASRWEPYDPEKKWDKYTIR

Variants of: B1
Assay: protein stability index of a GFP-peptide fusion (GPS, HEK-293T) (PSI 1-6); higher = more stable
Conditions: c terminus: native
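Note: lentivirally expressed fusions sorted by FACS into six bins by GFP to DsRed ratio, PSI derived from sequencing read proportions per bin multiplied by bin number.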

Protein stability index of substitutions, site by site:
S6: F 2.92 | A 2.66 | N 2.86 | W 2 | Q 3.79 | V 1.95 | M 2.48 | L 1.84 | D 1.87 | C 1.72 | I 2.63 | G 2.98
P4: L 2.56 | C 1.69 | D 2.22 | S 1.97 | K 2 | H 2.36 | V 1.79 | W 1.64 | T 3.16 | E 2.45 | M 1.59 | R 2.13
I2: H 2.41 | L 3.1 | W 2.16 | G 3.14 | A 2.71 | K 2.48 | D 2.28 | Y 2.36 | N 3.19 | P 2.15 | F 2.33 | S 2.83 | M 2.35 | E 2.95 | Q 3.11 | C 2.74 | V 2.88
W8: M 3.42 | L 3.38 | P 3.92 | I 3.38 | A 3.29 | Y 2.5 | H 3.46 | Q 4.11 | E 3.6 | S 3.62 | V 3.62 | G 3.72 | F 2.17 | C 3.11 | R 3.54 | K 2.96
T21: W 2.86 | L 2.32 | V 2.55 | C 1.97 | I 1.74 | A 2.08 | P 2.36 | Y 2.71 | G 2.38 | H 2.2 | M 2.08 | S 1.89 | E 2.7 | Q 2.18 | R 2.38
D12: A 2.5 | H 2.98 | K 2.73 | M 2.6 | T 2.11 | S 2.49 | R 2.07 | I 1.79 | F 2.48 | W 1.8 | V 3.47 | P 1.69 | C 1.89 | L 1.83 | Y 1.75 | G 2.16 | E 2.15
P10: W 1.58 | Q 2.12 | M 1.82 | Y 2.89 | V 1.94 | N 2.02 | L 1.8 | H 2.88 | I 1.24 | R 2.7 | C 3 | F 2.04 | T 2.3 | D 2.23 | S 2.91 | A 1.71 | K 2.24
I22: A 2.03 | N 3.07 | D 2.02 | S 2.72 | W 2.06 | C 2.15 | V 2.75 | R 1.59 | H 2.19 | L 2.25 | E 2.25 | T 2.62 | Q 2.91 | G 2.29 | P 3.88 | F 2.92
R23: M 2.1 | D 2.58 | A 3.17 | P 3.67 | N 2.27 | T 1.87 | W 1.72 | Q 2.12 | S 2.1 | K 2.4 | F 1.85 | C 2.08 | Y 2.1 | H 2.2 | L 2.54
F3: E 2.75 | D 3.92 | I 2.57 | Y 2.1 | K 2.47 | N 3.25 | Q 3.31 | A 3.12 | C 2.54 | G 4.42 | T 3
R7: S 3.31 | L 1.21 | I 1.48 | A 2.34 | D 3.29 | H 2 | P 2.01 | G 2.5 | W 1.22 | V 2.48 | Y 1.65
A5: V 1.77 | C 1.73 | K 2.31 | L 1.58 | P 3.42 | R 1.9 | F 2.24 | T 2.06 | D 2.04 | Q 3.48 | Y 1.5 | E 1.96 | H 1.8 | I 2.18 | M 1.54
K16: S 2.6 | W 1.92 | I 1.54 | V 1.97 | M 1.71 | H 1.72 | C 1.96 | T 1.81 | P 2.48 | D 1.78 | Q 2.79 | Y 1.66 | E 2.79 | L 2.63 | F 3.28 | R 2.59 | G 1.77 | A 1.76
E14: K 2.27 | P 2.2 | T 1.96 | N 2.42 | M 2.38 | I 2.68 | D 2.02 | G 2.5 | C 2 | S 2.65 | R 2.49 | L 2.1 | V 1.59
E9: Q 2.2 | C 3.21 | D 1.85 | A 2.24 | V 2.17 | L 2.42 | N 2.05 | F 2.42 | Y 1.51 | M 1.77 | P 2.57 | S 2.76 | I 3.95 | H 1.88 | G 1.72 | W 2.74
W17: N 2.54 | C 3.46 | I 2.64 | K 2.57 | D 2.51 | P 2.56 | F 2.9 | S 3 | V 2.62 | H 2.42 | A 2.45 | M 2.61 | Q 3.14 | L 2.37 | Y 2.29
K19: F 2.25 | I 2.22 | W 3.02 | Y 1.35 | Q 2.63 | M 1.9 | H 2.03 | V 1.31 | L 2.04 | E 2.53 | R 2.6 | T 3.02 | S 1.89 | P 2.3 | C 1.81 | G 2.84
K15: E 1.66 | N 1.71 | W 3 | M 2.16 | Q 2.13 | R 1.8 | D 2.05 | Y 2.12 | C 3.43 | V 2.1 | T 2.33 | I 1.9 | L 1.57 | G 2.27
Y20: I 1.49 | H 2.74 | D 3.29 | N 2.73 | T 3.05 | S 2.74 | R 2.81 | A 1.86 | C 1.77 | F 2.67 | M 2.2 | K 2.6 | Q 2.48 | P 2.93
Y11: G 3.04 | H 2.35 | E 2.37 | Q 2.28 | S 2.83 | F 2.18 | N 2.67 | K 3.01 | V 2.67 | L 2.27 | W 2.11 | D 2.74 | C 2.48 | M 2.65 | T 2.42
P13: N 2.05 | G 2.03 | W 1.25 | Y 2.13 | D 1.75 | K 2.25 | L 1.58 | Q 1.74 | A 2.44 | I 3.04 | C 1.48 | S 2.1 | R 2 | V 2.72 | H 2.19
H1: A 1.75 | C 2.4 | P 2.83 | E 2.52 | Q 2.5 | I 1.58 | S 2.04 | V 1.45 | Y 1.69 | M 1.22
D18: Y 2.39 | H 2.58 | L 2.08 | F 1.55 | K 3.01 | A 1.96 | G 2.28 | C 2.61 | N 4.48 | T 2.37 | R 2.01 | P 2.99 | S 1.45 | E 3.2
